Measurements reported in publication PMC7987023 (bioRxiv, 2021).

Biological target: SARS-CoV-2 6P stabilized S trimer (SARS-CoV-2, Wuhan-Hu-1 reference, UniProt P0DTC2, stabilised)
Experiment: cryo-EM structure

B1: C051 Fab (Fab, V domains shown)
VH: EVQLVESGGGLIQAGGSLRLSCAASGFGVRNNYMSWVRQAPGKGLEWVSVIYSGGTTYYADSVKGRFTISRDNSKNTVFLQMNSLRAEDTAVYYCAREGDVEGFSDLWSGYSRDRYYFDYWGQGTLVTVSS
VL: QSVLTQPASVSGSPGQSITFSCTGTSSDVGGYNYVSWYQQYPGKAPKLLIYDVTNRPSGVSDRFSGSKSGNTASLTISGLQAEDEADYYCSSFTSSNTRVFGTGTKVTVL
B1: binds.
